Data taken from patent publication US20230192896A1 (BIOVERATIV THERAPEUTICS, published 2023).

What follows are binders tested against T1, FIXa-SM (FIXa+EGR-CMK) (human, UniProt P00740 47-191; P00740 227-461, EGR-CMK (L-Glu-Gly-Arg chloromethyl ketone) covalently bound to the active site) (assay: BLI; class meaning: paragraph 914).
T1 construct: BLI antigen bought from Haematologic Technologies (HCIXA-EGR); also called FIXa with substrate mimic

Binder	binding result
BIIB-9-883 (antibody, V domains shown, IgG) VH: QVQLVQSGAEVKKPGASVKVSCKASGYTFTSYYMHWVRQAPGQGLEWMGIINPSGGSTSYAQKFQGRVTMTRDTSTSTVYMELSSLRSEDTAVYYCARDGRLSYTWDRWGQGTLVTVSS VL: DIQMTQSPSSLSASVGDRVTITCQASQDITNYLNWYQQKPGKAPKLLIYDASNLETGVPSRFSGSGSGTDFTFTISSLQPEDIATYYCQQADHFPFTFGGGTKVEIK	binds
BIIB-9-419 (antibody, V domains shown, IgG) VH: QVQLVQSGAEVKKPGASVKVSCKASGYTFTSYYMHWVRQAPGQGLEWMGIINPSGGSTSYAQKFQGRVTMTRDTSTSTVYMELSSLRSEDTAVYYCAREPTFYASYFDLWGRGTLVTVS VL: EIVMTQSPATLSLSPGERATLSCRASQSVSSYLAWYQQKPGQAPRLLIYDSSNRATGIPARFSGSGSGTDFTLTISSLEPEDFAVYYCQQVSTHPYTFGGGTKVEIK	binds
BIIB-9-565 (antibody, V domains shown, IgG) VH: QLQLQESGPGLVKPSETLSLTCTVSGGSISSSSYYWGWIRQPPGKGLEWIGSIYYSGSTYYNPSLKSRVTISVDTSKNQFSLKLSSVTAADTAVYYCARAGMYSSYANWFDPWGQGTLVTVSS VL: EIVLTQSPATLSLSPGERATLSCRASQSVSSYLAWYQQKPGQAPRLLIYDASNRATGIPARFSGSGSGTDFTLTISSLEPEDFAVYYCQQDSNLPFTFGGGTKVEIK	binds
BIIB-9-473 (antibody, V domains shown, IgG) VH: not shown VL: EIVLTQSPATLSLSPGERATLSCRASQSVSSYLAWYQQKPGQAPRLLIYDASNRATGIPARFSGSGSGTDFTLTISSLEPEDFAVYYCQQRSFLPYTFGGGTKVEIK	binds
BIIB-9-588 (antibody, V domains shown, IgG) VH: QVQLVQSGAEVKKPGASVKVSCKASGYTFTSYYMHWVRQAPGQGLEWMGIINPSGGSTTYAQKFQGRVTMTRDTSTSTVYMELSSLRSEDTAVYYCARDGGGSYDYWSGYWYDVWGQGTTVTVSS VL: EIVMTQSPATLSVSPGERATLSCRASQSVSSNLAWYQQKPGQAPRLLIYGASTRATGIPARFSGSGSGTEFTLTISSLQSEDFAVYYCQQAYNWPFTFGGGTKVEIK	binds

The remaining lines, values ahead:

binding result	Binder
binds	BIIB-9-611 (antibody, V domains shown, IgG) VH: QVQLVQSGAEVKKPGASVKVSCKASGYTFTSYYMHWVRQAPGQGLEWMGIINPSGGSTSYAQKFQGRVTMTRDTSTSTVYMELSSLRSEDTAVYYCAREVISRVSYFDLWGRGTLVTVSS VL: EIVMTQSPATLSVSPGERATLSCRASQSVSSNLAWYQQKPGQAPRLLIYGASTRATGIPARFSGSGSGTEFTLTISSLQSEDFAVYYCQQDNIHPYTFGGGTKVEIK
binds	BIIB-9-619 (antibody, V domains shown, IgG) VH: QVQLVQSGAEVKKPGASVKVSCKASGYTFTSYYMHWVRQAPGQGLEWMGIINPSGGSTSYAQKFQGRVTMTRDTSTSTVYMELSSLRSEDTAVYYCARDGPRVSDYYMDVWGKGTTVTVSS VL: EIVLTQSPATLSLSPGERATLSCRASQSVSSYLAWYQQKPGQAPRLLIYDASNRATGIPARFSGSGSGTDFTLTISSLEPEDFAVYYCQQRDNWPFTFGGGTKVEIK
binds	BIIB-9-451 (antibody, V domains shown, IgG) VH: QLQLQESGPGLVKPSETLSLTCTVSGGSISSSSYYWGWIRQPPGKGLEWIGSISYSGSTYYNPSLKSRVTISVDTSKNQFSLKLSSVTAADTAVYYCARDSGGYYYQGFDYWGQGTLVTVSS VL: not shown
binds	BIIB-9-626 (antibody, V domains shown, IgG) VH: QVQLVQSGAEVKKPGASVKVSCKASGYTFTSYYMHWVRQAPGQGLEWMGVINPSGGSTSYAQKFQGRVTMTRDTSTSTVYMELSSLRSEDTAVYYCARDLQYSMTYFDYWGQGTLVTVSS VL: DIQMTQSPSTLSASVGDRVTITCRASQSISSWLAWYQQKPGKAPKLLIYKASSLESGVPSRFSGSGSGTEFTLTISSLQPDDFATYYCQQDGSYPPLTFGGGTKVEIK
